This note sets out measurements from US7648963B2, “Molecules of the PYRIN/NBS/LRR protein family and uses thereof” (Millennium Pharmaceuticals, Inc., priority 2001, dated 2010).

Residues, ends and D or L forms follow the SMILES beside them. *: point of attachment. Cbz = O=C(OCc1ccccc1)*; CH2F = FC*

One assay relates to caspase-1. The assay can be described thus: IL-1β secretion assay in COS-7L cells (ELISA for mouse IL-1β). As to conditions: for IL-1β production (caspase-1 activation): co-expression with caspase-1 and CARD-5 at low protein levels, FIG. 14B. The class given is cell-based. Here is the method:
Experiments were next carried out using an IL-1β secretion assay to determine whether CARD-5 and PYRIN-8 induce activation of caspase-1. Active caspase-1 cleaves pro-IL-1β, resulting in the secretion of bioactive IL-1β from cells. In the IL-1β secretion assays, COS-7L cells (GIBCO) were co-transfected in 12-well (22-mm) plates using LipofectAMINE […] reagent (Invitrogen) with plasmids encoding mouse pro-IL-1β and indicated expression plasmids (total DNA=1.04 μg). Supernatants were collected 24 hours after transfection and subjected to ELISA for mouse IL-1β according to the manufacturer's protocol (R&D Systems).
The caspase-1 inhibitor Z-WEHD-FMK was added to cells following transfection at a final concentration of 100 μM.

A further assay has as its target T1, CARD-5 (Homo sapiens, UniProt Q9ULZ3).
T1 construct: expressed in transfected cells; host or cells: 293T
The assay can be described thus: Cellular co-localization (immunostaining) in 293T embryonic kidney cells. The class given is cell-based. As to conditions: 293T cells; FLAG-tagged PYRIN-8 construct co-expressed with HA-tagged CARD-5. Here is the method:
Cellular co-localization studies were carried out to determine whether PYRIN-8 interacts with CARD-5 (also known as ASC) when the two proteins were overexpressed in 293T embryonic kidney cells. Plasmids expressing either full-length PYRIN-8 (PYRIN-8FL, residues 1-1061 of SEQ ID NO:18) or a PYRIN-8 truncation mutant lacking the PYRIN domain (PYRIN-8ΔPYRIN, residues 89-1061 of SEQ ID NO:18) with a C-terminal FLAG epitope were constructed using pCI (Promega). FLAG-tagged PYRIN-8 and HA-tagged CARD-5 were expressed in cells and detected using a mixture of anti-HA and anti-FLAG antibodies.
In immunostaining assays to detect cellular localization, 293T cells were transfected in poly-D-lysine-coated glass chamber slides (BioCoat, Becton-Dickinson Labware) with plasmids expressing HA-tagged CARD-5 and either FLAG-tagged PYRIN-8 or PYRIN-8ΔPYRIN using SuperFect transfection reagent (Qiagen). Cells were fixed 24 hours after transfection in 4% paraformaldehyde, permeabilized and blocked in a buffer containing 0.3% Triton X-100, and incubated with the following primary and secondary antibodies: rabbit anti-HA polyclonal Y-11 (Santa Cruz Biotechnology), mouse anti-FLAG monoclonal antibody M2 (Sigma), Alexa-350 goat anti-rabbit IgG (Molecular Probes), and Alexa-598 goat anti-mouse IgG (Molecular Probes). […]

T1 sequence (Q9ULZ3 whole entry): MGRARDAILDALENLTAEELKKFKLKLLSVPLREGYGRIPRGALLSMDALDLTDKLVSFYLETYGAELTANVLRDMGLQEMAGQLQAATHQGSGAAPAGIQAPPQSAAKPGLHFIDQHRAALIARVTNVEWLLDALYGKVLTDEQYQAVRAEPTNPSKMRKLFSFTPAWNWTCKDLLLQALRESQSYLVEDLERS

As for `COC(=O)CC[C@H](NC(=O)[C@H](Cc1c[nH]c2ccccc12)NC(=O)OCc1ccccc1)C(=O)N[C@@H](Cc1cnc[nH]1)C(=O)N[C@@H](CC(=O)OC)C(=O)CF` [Z-WEHD, Z-WEHD-FMK, reference compound] (Cbz-WE(OMe)HD(OMe)-CH2F), the “effect on IL-1β secretion induced by PYRIN-8 and CARD-5” value in the assay on caspase-1 (inhibitor added following transfection at a final concentration of 100 μM, FIG. 14C) was “blocked the ability of PYRIN-8 and CARD-5 to induce the secretion of IL-1β”.

B1: PYRIN-8ΔPYRIN: PYRIN-8 truncation mutant lacking the PYRIN domain, residues 89-1061 of SEQ ID NO:18 (protein, listed as Homo sapiens)
chain: GQREDLVRDTPPGGPSSLGNQSTCLLEVSLVTPRKDPQETYRDYVRRKFRLMEDRNARLGECVNLSHRYTRLLLVKEHSNPMQVQQQLLDTGRGHARTVGHQASPIKIETLFEPDEERPEPPRTVVMQGAAGIGKSMLAHKVMLDWADGKLFQGRFDYLFYINCREMNQSATECSMQDLIFSCWPEPSAPLQELIRVPERLLFIIDGFDELKPSFHDPQGPWCLCWEEKRPTELLLNSLIRKKLLPELSLLITTRPTALEKLHRLLEHPRHVEILGFSEAERKEYFYKYFHNAEQAGQVFNYVRDNEPLFTMCFVPLVCWVVCTCLQQQLEGGGLLRQTSRTTTAVYMLYLLSLMQPKPGAPRLQPPPNQRGLCSLAADGLWNQKILFEEQDLRKHGLDGEDVSAFLNMNIFQKDINCERYYSFIHLSFQEFFAAMYYILDEGEGGAGPDQDVTRLLTEYAFSERSFLALTSRFLFGLLNEETRSHLEKSLCWKVSPHIKMDLLQWIQSKAQSDGSTLQQGSLEFFSCLYEIQEEEFIQQALSHFQVIVVSNIASKMEHMVSSFCLKRCRSAQVLHLYGATYSADGEDRARCSAGAHTLLVQLPERTVLLDAYSEHLAAALCTNPNLIELSLYRNALGSRGVKLLCQGLRHPNCKLQNLRLKRCRISSSACEDLSAALIANKNLTRMDLSGNGVGFPGMMLLCEGLRHPQCRLQMIQLRKCQLESGACQEMASVLGTNPHLVELDLTGNALEDLGLRLLCQGLRHPVCRLRTLWLKICRLTAAACDELASTLSVNQSLRELDLSLNELGDLGVLLLCEGLRHPTCKLQTLRLGICRLGSAACEGLSVVLQANHNLRELDLSFNDLGDWGLWLLAEGLQHPACRLQKLWLDSCGLTAKACENLYFTLGINQTLTDLYLTNNALGDTGVRLLCKRLSHPGCKLRVLWLFGMDLNKMTHSRLAALRVTKPYLDIGC
As for B1, the “IL-1β production (caspase-1 activation)” value in the assay on caspase-1 is listed as “eliminated the synergistic production of IL-1β”. Moreover, the “co-localization with CARD-5 punctate structures” value with CARD-5 was “failed to associate with the CARD-5 punctate structures”.

B2: PYRIN-8: full-length human PYRIN-8 protein, residues 1-1061 of SEQ ID NO:18, expressed from plasmid (protein, listed as Homo sapiens)
chain: MLRTAGRDGLCRLSTYLEELEAVELKKFKLYLGTATELGEGKIPWGSMEKAGPLEMAQLLITHFGPEEAWRLALSTFERINRKDLWERGQREDLVRDTPPGGPSSLGNQSTCLLEVSLVTPRKDPQETYRDYVRRKFRLMEDRNARLGECVNLSHRYTRLLLVKEHSNPMQVQQQLLDTGRGHARTVGHQASPIKIETLFEPDEERPEPPRTVVMQGAAGIGKSMLAHKVMLDWADGKLFQGRFDYLFYINCREMNQSATECSMQDLIFSCWPEPSAPLQELIRVPERLLFIIDGFDELKPSFHDPQGPWCLCWEEKRPTELLLNSLIRKKLLPELSLLITTRPTALEKLHRLLEHPRHVEILGFSEAERKEYFYKYFHNAEQAGQVFNYVRDNEPLFTMCFVPLVCWVVCTCLQQQLEGGGLLRQTSRTTTAVYMLYLLSLMQPKPGAPRLQPPPNQRGLCSLAADGLWNQKILFEEQDLRKHGLDGEDVSAFLNMNIFQKDINCERYYSFIHLSFQEFFAAMYYILDEGEGGAGPDQDVTRLLTEYAFSERSFLALTSRFLFGLLNEETRSHLEKSLCWKVSPHIKMDLLQWIQSKAQSDGSTLQQGSLEFFSCLYEIQEEEFIQQALSHFQVIVVSNIASKMEHMVSSFCLKRCRSAQVLHLYGATYSADGEDRARCSAGAHTLLVQLPERTVLLDAYSEHLAAALCTNPNLIELSLYRNALGSRGVKLLCQGLRHPNCKLQNLRLKRCRISSSACEDLSAALIANKNLTRMDLSGNGVGFPGMMLLCEGLRHPQCRLQMIQLRKCQLESGACQEMASVLGTNPHLVELDLTGNALEDLGLRLLCQGLRHPVCRLRTLWLKICRLTAAACDELASTLSVNQSLRELDLSLNELGDLGVLLLCEGLRHPTCKLQTLRLGICRLGSAACEGLSVVLQANHNLRELDLSFNDLGDWGLWLLAEGLQHPACRLQKLWLDSCGLTAKACENLYFTLGINQTLTDLYLTNNALGDTGVRLLCKRLSHPGCKLRVLWLFGMDLNKMTHSRLAALRVTKPYLDIGC
Consider B2, for which the “IL-1β production (caspase-1 activation)” value in the assay with caspase-1 is “increase in IL-1β production”. In addition, in the assay with CARD-5, the “co-localization with CARD-5 punctate structures” value is listed as “co-localize with CARD-5”.
